Where “and” joins values, the source holds several entries; their conditions need not be identical. Equal entries are not always repeated.

The target of assay [1] is T1, human NPRA (human, UniProt P16066 33-1061).
T1 sequence (looked up): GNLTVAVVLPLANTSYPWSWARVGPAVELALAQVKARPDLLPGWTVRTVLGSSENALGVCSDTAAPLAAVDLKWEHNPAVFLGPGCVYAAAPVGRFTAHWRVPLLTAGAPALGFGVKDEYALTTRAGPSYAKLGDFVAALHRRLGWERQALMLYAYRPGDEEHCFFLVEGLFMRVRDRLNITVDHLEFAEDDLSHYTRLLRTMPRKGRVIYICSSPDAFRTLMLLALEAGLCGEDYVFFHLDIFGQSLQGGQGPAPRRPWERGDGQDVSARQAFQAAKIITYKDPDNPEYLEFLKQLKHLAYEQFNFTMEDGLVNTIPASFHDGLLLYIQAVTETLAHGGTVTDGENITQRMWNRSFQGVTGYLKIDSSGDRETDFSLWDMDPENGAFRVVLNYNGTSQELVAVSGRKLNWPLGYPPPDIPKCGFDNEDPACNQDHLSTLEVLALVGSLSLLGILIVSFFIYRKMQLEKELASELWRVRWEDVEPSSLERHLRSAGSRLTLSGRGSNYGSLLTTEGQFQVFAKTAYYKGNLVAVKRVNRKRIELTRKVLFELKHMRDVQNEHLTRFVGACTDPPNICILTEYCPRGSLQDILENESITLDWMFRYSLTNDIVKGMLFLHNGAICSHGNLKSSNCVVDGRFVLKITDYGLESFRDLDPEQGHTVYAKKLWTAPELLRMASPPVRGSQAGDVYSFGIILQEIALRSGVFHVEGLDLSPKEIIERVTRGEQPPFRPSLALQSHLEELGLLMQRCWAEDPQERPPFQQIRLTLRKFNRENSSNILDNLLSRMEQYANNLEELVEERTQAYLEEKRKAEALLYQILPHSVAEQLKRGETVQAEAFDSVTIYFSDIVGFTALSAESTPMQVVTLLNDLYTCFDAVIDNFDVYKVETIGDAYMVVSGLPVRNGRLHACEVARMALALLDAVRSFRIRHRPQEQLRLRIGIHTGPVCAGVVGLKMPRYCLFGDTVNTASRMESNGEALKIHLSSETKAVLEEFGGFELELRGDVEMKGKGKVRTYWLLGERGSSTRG
Kind of assay: cell-based or functional assay.

For assay [2], the target named is T2, human NPRA (human, UniProt P16066 33-1061).
T2 sequence (looked up): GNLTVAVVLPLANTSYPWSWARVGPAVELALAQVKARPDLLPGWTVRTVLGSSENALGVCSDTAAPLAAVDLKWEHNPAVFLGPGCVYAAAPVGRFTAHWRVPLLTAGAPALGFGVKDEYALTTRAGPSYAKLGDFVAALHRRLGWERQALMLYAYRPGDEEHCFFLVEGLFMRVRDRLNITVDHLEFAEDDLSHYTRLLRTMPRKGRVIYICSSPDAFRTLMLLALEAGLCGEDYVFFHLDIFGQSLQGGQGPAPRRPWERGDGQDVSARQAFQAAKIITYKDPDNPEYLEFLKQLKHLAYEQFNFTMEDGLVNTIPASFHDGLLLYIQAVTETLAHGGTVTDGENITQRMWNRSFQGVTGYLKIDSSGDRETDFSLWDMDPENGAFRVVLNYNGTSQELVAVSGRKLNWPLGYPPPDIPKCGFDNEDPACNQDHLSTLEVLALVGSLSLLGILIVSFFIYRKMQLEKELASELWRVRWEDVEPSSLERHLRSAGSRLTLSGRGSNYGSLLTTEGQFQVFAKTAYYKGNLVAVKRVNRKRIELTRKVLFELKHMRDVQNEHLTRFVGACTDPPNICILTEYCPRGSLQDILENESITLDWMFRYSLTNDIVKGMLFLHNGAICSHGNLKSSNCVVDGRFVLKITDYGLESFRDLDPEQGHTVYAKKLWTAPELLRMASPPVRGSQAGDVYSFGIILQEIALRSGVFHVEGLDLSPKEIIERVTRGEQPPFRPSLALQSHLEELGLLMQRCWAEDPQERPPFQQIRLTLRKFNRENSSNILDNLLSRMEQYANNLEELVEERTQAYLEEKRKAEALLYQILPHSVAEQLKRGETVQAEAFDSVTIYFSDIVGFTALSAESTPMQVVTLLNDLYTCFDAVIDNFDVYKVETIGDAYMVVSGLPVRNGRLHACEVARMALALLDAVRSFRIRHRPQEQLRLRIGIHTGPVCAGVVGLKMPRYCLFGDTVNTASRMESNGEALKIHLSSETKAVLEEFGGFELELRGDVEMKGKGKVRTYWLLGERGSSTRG
As to the kind of experiment: cell-based or functional assay. The source holds these as a separate data set.

B1: TPP-13230 (antibody)
heavy: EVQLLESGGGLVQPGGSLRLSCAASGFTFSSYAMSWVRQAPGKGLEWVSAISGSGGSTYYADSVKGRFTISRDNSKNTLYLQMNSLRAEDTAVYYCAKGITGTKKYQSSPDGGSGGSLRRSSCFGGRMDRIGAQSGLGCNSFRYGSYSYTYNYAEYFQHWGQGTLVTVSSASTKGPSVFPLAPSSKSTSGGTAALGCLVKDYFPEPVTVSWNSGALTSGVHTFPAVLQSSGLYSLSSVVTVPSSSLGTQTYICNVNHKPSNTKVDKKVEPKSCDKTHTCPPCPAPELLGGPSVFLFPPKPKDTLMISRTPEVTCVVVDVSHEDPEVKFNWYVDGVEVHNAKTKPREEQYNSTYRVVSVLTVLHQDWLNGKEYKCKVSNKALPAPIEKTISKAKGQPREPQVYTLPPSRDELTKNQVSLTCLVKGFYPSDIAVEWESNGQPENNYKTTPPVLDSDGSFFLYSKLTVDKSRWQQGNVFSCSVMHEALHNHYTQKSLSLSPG
light: QSVLTQPPSVSGAPGQRVTISCTGSSSNIGAGYDVHWYQQLPGTAPKLLIYGNSNRPSGVPDRFSGSKSGTSASLAITGLQAEDEADYYCQSYDSSLSGVVFGGGTKLTVLGQPKAAPSVTLFPPSSEELQANKATLVCLISDFYPGAVTVAWKADSSPVKAGVETTTPSKQSNNKYAASSYLSLTPEQWKSHRSYSCQVTHEGSTVEKTVAPTECS
As for B1, in assay [1], the “average rel logEC50” value was -0.3 log vs TPP-5661 and the “rel. logEC50 pcs 9” value was -0.3 log vs TPP-5661.

B2: TPP-13061 (antibody, human IgG1, lambda)
heavy: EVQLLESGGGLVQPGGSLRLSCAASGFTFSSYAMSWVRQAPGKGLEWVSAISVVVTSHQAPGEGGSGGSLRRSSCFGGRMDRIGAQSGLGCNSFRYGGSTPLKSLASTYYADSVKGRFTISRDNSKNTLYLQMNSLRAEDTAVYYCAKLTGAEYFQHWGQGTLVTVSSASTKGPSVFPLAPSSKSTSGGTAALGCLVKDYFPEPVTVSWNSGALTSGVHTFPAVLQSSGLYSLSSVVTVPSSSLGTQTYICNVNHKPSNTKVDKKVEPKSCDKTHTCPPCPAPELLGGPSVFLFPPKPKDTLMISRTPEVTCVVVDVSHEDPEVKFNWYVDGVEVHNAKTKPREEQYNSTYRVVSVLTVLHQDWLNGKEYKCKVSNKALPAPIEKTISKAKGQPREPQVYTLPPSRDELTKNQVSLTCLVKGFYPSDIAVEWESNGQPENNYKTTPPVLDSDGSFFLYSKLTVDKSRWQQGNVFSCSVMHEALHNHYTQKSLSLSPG
light: QSVLTQPPSVSGAPGQRVTISCTGSSSNIGAGYDVHWYQQLPGTAPKLLIYGNSNRPSGVPDRFSGSKSGTSASLAITGLQAEDEADYYCQSYDSSLSGVVFGGGTKLTVLGQPKAAPSVTLFPPSSEELQANKATLVCLISDFYPGAVTVAWKADSSPVKAGVETTTPSKQSNNKYAASSYLSLTPEQWKSHRSYSCQVTHEGSTVEKTVAPTECS
For B2, in assay [2], the “average rel logEC50” value is -0.7 log vs TPP-5661; the “rel. logEC50* pcs” value was -0.6 log vs TPP-5661 and -0.8 log vs TPP-5661.

B3: TPP-5661 (antibody)
heavy: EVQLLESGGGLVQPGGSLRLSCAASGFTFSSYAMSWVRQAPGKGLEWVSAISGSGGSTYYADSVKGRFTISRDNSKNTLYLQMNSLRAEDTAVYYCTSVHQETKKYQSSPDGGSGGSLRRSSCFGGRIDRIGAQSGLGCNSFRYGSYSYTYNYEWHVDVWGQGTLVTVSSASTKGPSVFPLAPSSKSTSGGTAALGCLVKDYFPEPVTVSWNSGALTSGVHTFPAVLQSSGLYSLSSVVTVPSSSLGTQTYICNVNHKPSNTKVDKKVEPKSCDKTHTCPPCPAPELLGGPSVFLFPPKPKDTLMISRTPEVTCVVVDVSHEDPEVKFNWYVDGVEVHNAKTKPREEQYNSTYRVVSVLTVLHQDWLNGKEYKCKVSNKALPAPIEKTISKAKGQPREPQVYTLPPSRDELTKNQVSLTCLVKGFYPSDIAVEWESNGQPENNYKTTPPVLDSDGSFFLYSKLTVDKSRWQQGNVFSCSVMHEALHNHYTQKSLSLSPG
light: QSVLTQPPSVSGAPGQRVTISCTGSSSNIGAGYDVHWYQQLPGTAPKLLIYGNSNRPSGVPDRFSGSKSGTSASLAITGLQAEDEADYYCQSYDSSLSGVVFGGGTKLTVLGQPKAAPSVTLFPPSSEELQANKATLVCLISDFYPGAVTVAWKADSSPVKAGVETTTPSKQSNNKYAASSYLSLTPEQWKSHRSYSCQVTHEGSTVEKTVAPTECS
Take B3: in assay [1], the activity rcs worked out at 36%, the “average rel logEC50” value was 0 log vs TPP-5661, the rel. activity rcs is 0 log vs TPP-5661 and the “rel. logEC50* pcs” value was determined as 0 log vs TPP-5661. Also, in assay [1], the “rel. logEC50 ics” value worked out at 0 log vs TPP-5661, the “rel. logEC50 pcs 1” value came to 0 log vs TPP-5661, the “rel. logEC50 pcs 2” value is 0 log vs TPP-5661 and the “rel. logEC50 pcs 3” value worked out at 0 log vs TPP-5661. Besides, in assay [1], the “rel. logEC50 pcs 4” value is 0 log vs TPP-5661, the “rel. logEC50 pcs 5” value stood at 0 log vs TPP-5661, the “rel. logEC50 pcs 6” value amounted to 0 log vs TPP-5661 and the “rel. logEC50 pcs 7” value was determined as 0 log vs TPP-5661. In addition, in assay [1], the “rel. logEC50 pcs 8” value was found to be 0 log vs TPP-5661 and the “rel. logEC50 pcs 9” value amounted to 0 log vs TPP-5661.

B4: TPP-10845 (antibody, human IgG1, lambda)
heavy: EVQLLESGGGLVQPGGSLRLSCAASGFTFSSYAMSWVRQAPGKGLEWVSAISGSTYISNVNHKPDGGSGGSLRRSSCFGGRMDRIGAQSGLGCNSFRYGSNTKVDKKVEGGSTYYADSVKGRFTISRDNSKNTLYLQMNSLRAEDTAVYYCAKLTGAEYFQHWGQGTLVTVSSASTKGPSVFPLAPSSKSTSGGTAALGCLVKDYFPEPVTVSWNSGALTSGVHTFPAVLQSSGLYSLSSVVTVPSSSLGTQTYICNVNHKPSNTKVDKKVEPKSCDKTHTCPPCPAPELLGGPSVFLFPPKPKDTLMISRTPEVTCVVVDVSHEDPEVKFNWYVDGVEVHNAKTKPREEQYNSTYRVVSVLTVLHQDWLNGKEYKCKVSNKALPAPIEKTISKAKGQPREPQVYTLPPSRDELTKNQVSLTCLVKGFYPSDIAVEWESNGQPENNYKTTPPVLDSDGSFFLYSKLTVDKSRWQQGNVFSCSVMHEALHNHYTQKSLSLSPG
light: QSVLTQPPSVSGAPGQRVTISCTGSSSNIGAGYDVHWYQQLPGTAPKLLIYGNSNRPSGVPDRFSGSKSGTSASLAITGLQAEDEADYYCQSYDSSLSGVVFGGGTKLTVLGQPKAAPSVTLFPPSSEELQANKATLVCLISDFYPGAVTVAWKADSSPVKAGVETTTPSKQSNNKYAASSYLSLTPEQWKSHRSYSCQVTHEGSTVEKTVAPTECS
As for B4, in assay [2], the activity rcs is 67%, the “average rel logEC50” value is -0.6 log vs TPP-5661, the “rel. logEC50 pcs 5” value is -0.4 log vs TPP-5661 and the “rel. logEC50 pcs 6” value is -0.8 log vs TPP-5661.

B5: TPP-10274 (antibody)
heavy: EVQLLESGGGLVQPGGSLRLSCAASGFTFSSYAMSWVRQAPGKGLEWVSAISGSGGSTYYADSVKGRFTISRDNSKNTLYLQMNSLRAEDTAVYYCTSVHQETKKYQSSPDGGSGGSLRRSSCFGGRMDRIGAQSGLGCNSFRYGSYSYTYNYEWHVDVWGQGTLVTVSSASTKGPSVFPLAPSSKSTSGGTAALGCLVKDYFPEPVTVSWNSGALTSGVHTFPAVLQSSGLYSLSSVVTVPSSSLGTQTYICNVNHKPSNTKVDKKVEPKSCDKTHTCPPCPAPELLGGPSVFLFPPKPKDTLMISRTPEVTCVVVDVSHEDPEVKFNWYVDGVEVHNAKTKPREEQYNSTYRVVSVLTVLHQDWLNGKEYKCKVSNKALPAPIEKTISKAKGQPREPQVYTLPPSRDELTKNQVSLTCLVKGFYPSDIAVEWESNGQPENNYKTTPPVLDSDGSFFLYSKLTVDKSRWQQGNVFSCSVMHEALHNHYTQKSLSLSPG
light: QSVLTQPPSVSGAPGQRVTISCTGSSSNIGAGYDVHWYQQLPGTAPKLLIYGNSNRPSGVPDRFSGSKSGTSASLAITGLQAEDEADYYCQSYDSSLSGVVFGGGTKLTVLGQPKAAPSVTLFPPSSEELQANKATLVCLISDFYPGAVTVAWKADSSPVKAGVETTTPSKQSNNKYAASSYLSLTPEQWKSHRSYSCQVTHEGSTVEKTVAPTECS
In the case of B5, in assay [2], the activity rcs was 71%, the “average rel logEC50” value was -0.1 log vs TPP-5661, the “rel. logEC50 pcs 2” value was -0.3 log vs TPP-5661 and the “rel. logEC50 pcs 3” value was -0.2 log vs TPP-5661. Besides, the “rel. logEC50 pcs 7” value in assay [2] was 0 log vs TPP-5661.

B6: TPP-13054 (antibody, human IgG1, lambda)
heavy: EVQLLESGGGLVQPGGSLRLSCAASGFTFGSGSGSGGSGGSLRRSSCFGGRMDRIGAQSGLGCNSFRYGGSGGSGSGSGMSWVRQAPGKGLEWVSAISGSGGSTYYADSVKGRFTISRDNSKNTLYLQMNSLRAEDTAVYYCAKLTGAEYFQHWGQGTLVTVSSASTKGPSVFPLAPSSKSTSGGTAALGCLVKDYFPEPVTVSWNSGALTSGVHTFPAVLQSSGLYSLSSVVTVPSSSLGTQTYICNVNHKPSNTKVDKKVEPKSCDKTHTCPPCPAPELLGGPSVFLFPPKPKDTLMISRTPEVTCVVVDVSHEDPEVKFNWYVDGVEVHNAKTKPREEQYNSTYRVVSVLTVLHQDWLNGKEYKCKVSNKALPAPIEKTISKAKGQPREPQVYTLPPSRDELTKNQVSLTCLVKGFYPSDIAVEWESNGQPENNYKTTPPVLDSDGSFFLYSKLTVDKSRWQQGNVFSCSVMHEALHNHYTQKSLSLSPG
light: QSVLTQPPSVSGAPGQRVTISCTGSSSNIGAGYDVHWYQQLPGTAPKLLIYGNSNRPSGVPDRFSGSKSGTSASLAITGLQAEDEADYYCQSYDSSLSGVVFGGGTKLTVLGQPKAAPSVTLFPPSSEELQANKATLVCLISDFYPGAVTVAWKADSSPVKAGVETTTPSKQSNNKYAASSYLSLTPEQWKSHRSYSCQVTHEGSTVEKTVAPTECS
As to B6, in assay [2], the “average rel logEC50” value is -0.8 log vs TPP-5661; the “rel. logEC50* pcs” value is -0.7 log vs TPP-5661 and -0.8 log vs TPP-5661.

B7: TPP-10361 (antibody, human IgG1, lambda)
heavy: not shown
light: QSVLTQPPSVSGAPGQRVTISCTGSSSNIGAGYDVHWYQQLPGTAPKLLIYGSGSGSGSGSGSPDGGSGGSLRRSSCFGGRMDRIGAQSGLGCNSFRYGSYGSGGSGSGSGNRPSGVPDRFSGSKSGTSASLAITGLQAEDEADYYCQSYDSSLSGVVFGGGTKLTVLGQPKAAPSVTLFPPSSEELQANKATLVCLISDFYPGAVTVAWKADSSPVKAGVETTTPSKQSNNKYAASSYLSLTPEQWKSHRSYSCQVTHEGSTVEKTVAPTECS
Regarding B7, in assay [1], the activity rcs stood at 20%, the “average rel logEC50” value is -0.1 log vs TPP-5661, the rel. activity rcs is -0.1 log vs TPP-5661 and the “rel. logEC50 pcs 5” value is -0.1 log vs TPP-5661.

The values above are taken from patent publication US20210147504A1 (Bayer, published 2021).
